Laboratory results as given in paper PMC6749330, “Novel Peptide NIRF Optical Surgical Navigation Agents for HNSCC” (Molecules, 2019).
Where a SMILES comes first, the peptide text is derived from it. The star is where a group is joined. IRDye800CW = CC1(C)C(/C=C/C2=C(Oc3ccc(S(=O)(=O)O)cc3)C(=C/C=C3/N(CCCCS(=O)(=O)O)c4ccc(S(=O)(=O)O)cc4C3(C)C)/CCC2)=[N+](CCCCCC(=O)*)c2ccc(S(=O)(=O)[O-])cc21

Legend:
[1] = tested on: Cal 27 cells; experiment: Fluorescence microscopy assay on Cal 27 cells; assay type: cell-based, Human; details: 10 μM, 1 h and 24 h incubations, 37 °C, 800 nm emission
Procedure: Fluorescence microscopy assays. Cal 27 cells were seeded at 70,000/well in duplicate on eight-well chamber slides and allowed to attach overnight. Cell culture medium was replaced with 200 μL medium containing 10 μM peptides. Cells were incubated at 37 °C for 1–24 h followed by washing four times with 300 μL of HEPES buffer (25 mM HEPES 150 mM NaCl at pH 7.4) and once with the buffer containing 1 μg/mL DAPI. The chamber slide scaffold was then removed. Each chamber was then covered by a drop of aqua-poly mount and a coverslip, and sealed with clear nail polish. Cells were imaged with an Olympus IX81 microscope using an 800 nm emission filter set for IRDye800 conjugates and 461 nm for DAPI. Images were captured at 800 nm (red) for 5 s and at 461 nm (blue) with the automatic settings, at 200×. […]
the measured fluorescence.
The ratio of uptake at 2 h drops to about 13. Note:
Figure 2 data are normalized to fHN-1-IR800 that was run adjacent to each of the hybrid-peptides. f-HN1- […]
vertical scale magnitude of 4IphfHN17-IR800 between Figure 2 at ~4.5 and Figure S3 at ~13.
Figure S4.Fluorescence microscopy of 1 h and 24 h incubations of 10 µM IR800-labeled hybrid-peptides in […]
Cal 27 cells. […] HN1-IR800, HNJ-
Figure S5. Blood clearance of hybrid-peptide molecules from normal mice as described in Materials and Methods. […]

[2] = HPLC Rt as measure of relative lipophilicity; details: chromatographic, C18 RP (XBridge 150 × 4.6 mm, 3.5 μm), water/ACN 0.1% TFA, 20 to 50% ACN up to 10 min, 50 to 70% from 10 to 30 min, 1 mL/min, NIRF detection
[3] = In vitro serum stability; details: nu/nu, mouse
[4] = tested on: FBS (fetal bovine serum) proteins; experiment: FBS protein binding assay; details: 25 μM in 100% FBS, room temperature 30 s, Amicon 10 K cutoff, 12,000 g 15 min, fluorescence, p < 0.05
Procedure: FBS protein binding assay. […] The concentration was chosen as the maximum expected in blood from an intravenous imaging dose of 40 nmol in a 20 g mouse, with a blood factor of 0.078 [40, 41]. Solutions (300 μL) were then loaded into an Amicon unit (0.5 mL, 10 K cutoff) and centrifuged at 12,000× g for 15 min [28]. Samples from the filtrate (50 μL), residual (5 μL), and original solution (5 μL) were loaded in duplicate into black wall 96-well plates containing 50 (for filtrate) or 95 (for residual and original) μL of PBS with 0.2% BSA. For an additional wash, 300 μL of PBS was then added into the Amicon unit. The unit was centrifuged as above. The same amounts of each of the parts were loaded into wells. Fluorescence intensity for each fraction was calculated by fraction volume × fluorescent unit/μL. Single factor ANOVA was used to analyze the data with p < 0.05 considered significant.

SMILES	Uptake in Cal 27 cells by fluorescence microscopy [1]	HPLC Rt (relative lipophilicity) [2] [min]	half-life at 6.4 μM [3] [min]	peptide bound to FBS proteins [4] [%]
CC1(C)C(/C=C/C2=C(Oc3ccc(S(=O)(=O)O)cc3)C(=C/C=C3/N(CCCCS(=O)(=O)O)c4ccc(S(=O)(=O)[O-])cc4C3(C)C)/CCC2)=[N+](CCCCCC(=O)O)c2ccc(S(=O)(=O)O)cc21 [IR800-COOH]	not observably taken up	–	–	–
CC[C@H](C)[C@H](NC(=O)[C@H](CC(N)=O)NC(=O)[C@H](CC(C)C)NC(=O)[C@@H]1CCCN1C(=O)[C@H](CO)NC(=O)[C@@H](N)[C@@H](C)O)C(=O)N[C@@H](Cc1c[nH]cn1)C(=O)N[C@@H](CC(N)=O)C(=O)NCC(=O)N[C@@H](CCC(N)=O)C(=O)N[C@@H](CCCCNC(=O)CCCCC[N+]1=C(/C=C/C2=C(Oc3ccc(S(=O)(=O)O)cc3)C(=C/C=C3/N(CCCCS(=O)(=O)O)c4ccc(S(=O)(=O)O)cc4C3(C)C)/CCC2)C(C)(C)c2cc(S(=O)(=O)[O-])ccc21)C(=O)N[C@@H](CC(C)C)C(N)=O [HN1-IR800] (H-TSPLNIHNGQK(IRDye800CW)L-NH2)	–	7.31	50.4	~52
